Experimental data: US20190241648A1 (STATEN BIOTECHNOLOGY B V, published 2019)
Ends that are not written are not given here.

Tests used:
Test in all cases: cyclic peptide substitution array
ApoC3 peptide L67S = biological target: T1, ApoC3 peptide L67S (human, thioether (positions not given here); not fully specified (bridges); also: thioether between a C-terminal Cys side chain and a modified N-terminus, the Cys is not in the chain)
T1 peptide: DKFSEFWDSDPEV
Summary of the method: (§1)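 Peptide microarrays incubated with antibody samples, then stained with goat anti-human IgG (Fc) DyLight680 and anti-HA DyLight800 control antibodies, scanned at intensity 7/7 (red/green). Secondary-only pre-stain checked background binding; framing HA peptides served as quality control; substitution effects read as changes in spot intensity.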

ApoC3 peptide L67P = biological target: T2, ApoC3 peptide L67P (human, thioether (positions not given here); not fully specified (bridges); also: thioether between a C-terminal Cys side chain and a modified N-terminus, the Cys is not in the chain)
T2 peptide: DKFSEFWDPDPEV
Summary of the method: as §1

ApoC3 peptide W65P = biological target: T3, ApoC3 peptide W65P (human, cyclic (thioether))
T3 peptide: DKFSEFPDLDPEV
Summary of the method: as §1

ApoC3 peptide P69N = biological target: T4, ApoC3 peptide P69N (human, not fully specified; cyclic (thioether))
T4 peptide: DKFSEFWDLDNEV
Summary of the method: as §1

ApoC3 peptide W65D = biological target: T5, ApoC3 peptide W65D (human, not fully specified; cyclic (thioether))
T5 peptide: DKFSEFDDLDPEV
Summary of the method: as §1

ApoC3 peptide D66L = biological target: T6, ApoC3 peptide D66L (human, not fully specified; cyclic (thioether))
T6 peptide: DKFSEFWLLDPEV
Summary of the method: as §1

ApoC3 peptide D68M = biological target: T7, ApoC3 peptide D68M (human, cyclic (thioether))
T7 peptide: DKFSEFWDLMPEV
Summary of the method: as §1

ApoC3 peptide F61E = biological target: T8, ApoC3 peptide F61E (human, cyclic (thioether))
T8 peptide: DKESEFWDLDPEV
Summary of the method: as §1

ApoC3 peptide V71A = biological target: T9, ApoC3 peptide V71A (human, thioether (positions not given here); also: cyclic (thioether), ring places not given here)
T9 peptide: DKFSEFWDLDPEA
Summary of the method: as §1

ApoC3 peptide P69Q = biological target: T10, ApoC3 peptide P69Q (human, not fully specified; cyclic (thioether))
T10 peptide: DKFSEFWDLDQEV
Summary of the method: as §1

ApoC3 peptide V71L = biological target: T11, ApoC3 peptide V71L (human, thioether (positions not given here); also: cyclic (thioether), ring places not given here)
T11 peptide: DKFSEFWDLDPEL
Summary of the method: as §1

ApoC3 peptide K60P = biological target: T12, ApoC3 peptide K60P (human, cyclic (thioether))
T12 peptide: DPFSEFWDLDPEV
Summary of the method: as §1

ApoC3 peptide D68P = biological target: T13, ApoC3 peptide D68P (human, cyclic (thioether))
T13 peptide: DKFSEFWDLPPEV
Summary of the method: as §1

ApoC3 peptide V71D = biological target: T14, ApoC3 peptide V71D (human, thioether (positions not given here); also: cyclic (thioether), ring places not given here)
T14 peptide: DKFSEFWDLDPED
Summary of the method: as §1

ApoC3 peptide W65N = biological target: T15, ApoC3 peptide W65N (human, not fully specified; cyclic (thioether))
T15 peptide: DKFSEFNDLDPEV
Summary of the method: as §1

ApoC3 peptide D68Y = biological target: T16, ApoC3 peptide D68Y (human, cyclic (thioether))
T16 peptide: DKFSEFWDLYPEV
Summary of the method: as §1

ApoC3 peptide F64V = biological target: T17, ApoC3 peptide F64V (human, thioether (positions not given here); not fully specified (bridges); also: cyclic (thioether), positions not given here)
T17 peptide: DKFSEVWDLDPEV
Summary of the method: as §1

ApoC3 peptide S62W = biological target: T18, ApoC3 peptide S62W (human, thioether (positions not given here); also: cyclic (thioether), ring places not given here)
T18 peptide: DKFWEFWDLDPEV
Summary of the method: as §1

ApoC3 peptide P69H = biological target: T19, ApoC3 peptide P69H (human, not fully specified; cyclic (thioether))
T19 peptide: DKFSEFWDLDHEV
Summary of the method: as §1

ApoC3 peptide L67V = biological target: T20, ApoC3 peptide L67V (human, thioether (positions not given here); not fully specified (bridges); also: thioether between a C-terminal Cys side chain and a modified N-terminus, the Cys is not in the chain)
T20 peptide: DKFSEFWDVDPEV
Summary of the method: as §1

ApoC3 peptide E70I = biological target: T21, ApoC3 peptide E70I (human, cyclic (thioether))
T21 peptide: DKFSEFWDLDPIV
Summary of the method: as §1

ApoC3 peptide S62T = biological target: T22, ApoC3 peptide S62T (human, thioether (positions not given here); also: cyclic (thioether), ring places not given here)
T22 peptide: DKFTEFWDLDPEV
Summary of the method: as §1

ApoC3 peptide V71G = biological target: T23, ApoC3 peptide V71G (human, thioether (positions not given here); also: cyclic (thioether), ring places not given here)
T23 peptide: DKFSEFWDLDPEG
Summary of the method: as §1

ApoC3 peptide P69A = biological target: T24, ApoC3 peptide P69A (human, thioether (positions not given here); not fully specified (bridges); also: thioether from modified N-terminus to C-terminal Cys (Cys not in chain))
T24 peptide: DKFSEFWDLDAEV
Summary of the method: as §1

ApoC3 peptide V71C = biological target: T25, ApoC3 peptide V71C (human, thioether (positions not given here); also: cyclic (thioether), ring places not given here)
T25 peptide: DKFSEFWDLDPEC
Summary of the method: as §1

[1] = biological target: T26, wild-type ApoC3 peptide DKFSEFWDLDPEV (human, cyclic (thioether))
T26 construct: 13 aa cyclic constrained peptide
T26 peptide: DKFSEFWDLDPEV
Summary of the method: as §1

ApoC3 peptide D68C = biological target: T27, ApoC3 peptide D68C (human, cyclic (thioether))
T27 peptide: DKFSEFWDLCPEV
Summary of the method: as §1

ApoC3 peptide F61M = biological target: T28, ApoC3 peptide F61M (human, cyclic (thioether))
T28 peptide: DKMSEFWDLDPEV
Summary of the method: as §1

ApoC3 peptide E63C = biological target: T29, ApoC3 peptide E63C (human, not fully specified; cyclic (thioether))
T29 peptide: DKFSCFWDLDPEV
Summary of the method: as §1

ApoC3 peptide F64D = biological target: T30, ApoC3 peptide F64D (human, cyclic (thioether))
T30 peptide: DKFSEDWDLDPEV
Summary of the method: as §1

B1: Llama antibody 5E5 (antibody, V domains shown)
VH: QLQLVESGGGLVQPGGSLRLSCAASGFTFGTYSMRWVRQVPRKALEWVSSISTDGGGTAYRDSVKGRFTISRDNAKNTLYLQMNNLKPEDTAIYYCVIAGYSDWGQGTQVTVSS
VL: ATMLTQSPGSLSVVPGESASISCKTSQGLVHSDGKTYFYWFLQKPGQSPQQLIYQVSNRASGVPDRFTGSGSGTDFTLKISGVKAEDAGVYYCAQGTYYPHTFGSGTRLEIK
notes: detected with goat anti-human IgG (Fc); also called mAb 5E5
With B1 the “% of binding to wild-type peptide” value (ApoC3 peptide L67S) was 36.5%, the “% of binding to wild-type peptide” value (ApoC3 peptide L67P) was 25.5% and the “% of binding to wild-type peptide” value (ApoC3 peptide W65P) was 0%. For the same binder, the “% of binding to wild-type peptide” value (ApoC3 peptide P69N) was 19.4%, the “% of binding to wild-type peptide” value (ApoC3 peptide W65D) was 0% and the “% of binding to wild-type peptide” value (ApoC3 peptide D66L) was 0%. For the same binder, the “% of binding to wild-type peptide” value (ApoC3 peptide D68M) was 2.82%, the “% of binding to wild-type peptide” value (ApoC3 peptide F61E) was 180% and the “% of binding to wild-type peptide” value (ApoC3 peptide V71A) was 66.3%. For the same binder, the “% of binding to wild-type peptide” value (ApoC3 peptide P69Q) was 24.3%, the “% of binding to wild-type peptide” value (ApoC3 peptide V71L) was 90.6% and the “% of binding to wild-type peptide” value (ApoC3 peptide K60P) was 205%. The “% of binding to wild-type peptide” value (ApoC3 peptide D68P) was 28.6%, the “% of binding to wild-type peptide” value (ApoC3 peptide V71D) was 111% and the “% of binding to wild-type peptide” value (ApoC3 peptide W65N) was 0%. For the same binder, the “% of binding to wild-type peptide” value (ApoC3 peptide D68Y) was 0.16%, the “% of binding to wild-type peptide” value (ApoC3 peptide F64V) was 117% and the “% of binding to wild-type peptide” value (ApoC3 peptide S62W) was 0%. For the same binder, the “% of binding to wild-type peptide” value (ApoC3 peptide P69H) was 10.7%, the “% of binding to wild-type peptide” value (ApoC3 peptide L67V) was 84.8% and the “% of binding to wild-type peptide” value (ApoC3 peptide E70I) was 65.6%. The “% of binding to wild-type peptide” value (ApoC3 peptide S62T) was 215%, the “% of binding to wild-type peptide” value (ApoC3 peptide V71G) was 91.9% and the “% of binding to wild-type peptide” value (ApoC3 peptide P69A) was 25.7%. For the same binder, the “% of binding to wild-type peptide” value (ApoC3 peptide V71C) was 56.9%, the “% of binding to wild-type peptide” value [1] was 100% and the “% of binding to wild-type peptide” value (ApoC3 peptide D68C) was 5.46%. The “% of binding to wild-type peptide” value (ApoC3 peptide F61M) was 68.7%, the “% of binding to wild-type peptide” value (ApoC3 peptide E63C) was 2.3% and the “% of binding to wild-type peptide” value (ApoC3 peptide F64D) was 259%.
